From patent US20210292396A1

Tests used:
Assay in all cases: cell-based or functional assay
[1] = target: HIV Env of isolate 246-F3.C10.2 (HIV)
[2] = target: HIV Env of isolate Ce1176.A3 (HIV)
[3] = target: HIV Env of isolate DU422.01 (HIV)
[4] = target: Env of HIV isolate T278-50 (clade AG) (HIV)
[5] = target: Envelope protein of SIVmac251.30.SG3 (clade NA)
[6] = target: Env of HIV isolate M02138 (clade AE) (HIV)
[7] = target: Env of HIV isolate 25711-2.4 (clade C) (HIV)
[8] = target: Env of HIV isolate Q769.d22 (clade A) (HIV)
[9] = target: Env of HIV isolate R2184.c4 (clade AE) (HIV)
[10] = target: Env of HIV isolate ZM53.12 (clade C) (HIV)
[11] = target: Env of HIV isolate BJOX002000.03.2 (clade BC) (HIV)
[12] = target: HIV Env of isolate CNE8 (HIV)
[13] = target: Env of HIV isolate 3365.v2.c20 (clade A) (HIV)
[14] = target: Env of HIV isolate X2088.c9 (clade G) (HIV)
[15] = target: HIV Env of isolate 6785.v5.c14 (HIV)
[16] = target: HIV Env of isolate 3415.v1.c1 (HIV)
[17] = target: Env of HIV isolate CNE58 (clade C in Table 7) (HIV)
[18] = target: HIV Env of isolate CAP210.E8 (HIV)
[19] = target: Env of HIV isolate Q769.h5 (clade A) (HIV)
[20] = target: Env of HIV isolate BI369.9A (clade A) (HIV)
[21] = target: Env of HIV isolate BaL.26 (clade B) (HIV)
[22] = target: HIV Env of isolate 6644.v2.c33 (HIV)
[23] = target: Env of HIV isolate CNE10 (clade B) (HIV)
[24] = target: HIV Env of isolate Q842.d12 (HIV)
[25] = target: HIV Env of isolate R2184.c4 (HIV)
[26] = target: Env of HIV isolate CNE40 (clade BC) (HIV)
[27] = target: HIV Env of isolate C2101.c1 (HIV)
[28] = target: Env of HIV isolate ZM215.8 (clade C) (HIV)
[29] = target: HIV Env of isolate SS1196.01 (HIV)
[30] = target: Env of HIV isolate DJ263.8 (clade AG) (HIV)
[31] = target: HIV Env of isolate 6838.v1.c35 (HIV)
[32] = target: Env of HIV isolate 6535.3 (clade B) (HIV)
[33] = target: HIV Env of isolate 0077.v1.c16 (HIV)
[34] = target: HIV Env of isolate CNE53 (HIV)
[35] = target: HIV Env of isolate HXB2.DG (HIV) (UniProt P04578)
[36] = target: HIV Env of isolate CAP244.D3 (HIV)
[37] = target: HIV Env of isolate CNE55 (HIV)
[38] = target: Env of HIV isolate 3873.v1.c24 (clade C) (HIV)
[39] = target: Env of HIV isolate TZBD.02 (clade C) (HIV)
[40] = target: HIV Env of isolate BL01.DG (HIV)
[41] = target: HIV Env of isolate 242-14 (HIV)
[42] = target: Env of HIV isolate 235-47 (clade AG) (HIV)
[43] = target: HIV Env of isolate 26191-2.48 (HIV)
[44] = target: Env of HIV isolate P0402.c2.11 (clade G) (HIV)
[45] = target: Env of HIV isolate BX08.16 (clade B) (HIV)
[46] = target: HIV Env of isolate BaL.26 (HIV)
[47] = target: Env of HIV isolate 6644.v2.c33 (clade C) (HIV)
[48] = target: HIV Env of isolate 3817.v2.c59 (HIV)
[49] = target: Env of HIV isolate Q259.17 (clade A) (HIV)
[50] = target: HIV Env of isolate C1080.c3 (HIV)
[51] = target: Env of HIV isolate CNE4 (clade B) (HIV)
[52] = target: Env of HIV isolate ZM176.66 (clade C) (HIV)
[53] = target: Env of HIV isolate 6838.v1.c35 (clade C) (HIV)

Substance: PGT121 (antibody)
- IC80 [1]: > 50 µg/mL
- IC80, pseudovirus neutralization [2]: 0.066 µg/mL
- IC80, pseudovirus neutralization [3]: 0.176 µg/mL
- IC50, pseudovirus neutralization [4]: > 50 µg/mL
- IC50, pseudovirus neutralization [5]: > 50 µg/mL
- IC50, pseudovirus neutralization [6]: > 50 µg/mL
- IC50, pseudovirus neutralization [7]: 0.0173 µg/mL
- IC50, pseudovirus neutralization [8]: > 50 µg/mL
- IC50, pseudovirus neutralization [9]: > 50 µg/mL
- IC50, pseudovirus neutralization [10]: 0.00267 µg/mL
- IC50, pseudovirus neutralization [11]: 0.026 µg/mL
- IC80 [12]: > 50 µg/mL
- IC50, pseudovirus neutralization [13]: 0.112 µg/mL
- IC50, pseudovirus neutralization [14]: 0.00633 µg/mL
- IC80, pseudovirus neutralization [15]: 0.108 µg/mL
- IC80 [16]: > 50 µg/mL
- IC50, pseudovirus neutralization [17]: 9.34 µg/mL
- IC80, pseudovirus neutralization [18]: > 50 µg/mL
- IC50, pseudovirus neutralization [19]: > 50 µg/mL
- IC50, pseudovirus neutralization [20]: 0.0283 µg/mL
- IC50, pseudovirus neutralization [21]: 0.0227 µg/mL
- IC80, pseudovirus neutralization [22]: 0.14 µg/mL
- IC50, pseudovirus neutralization [23]: 0.0193 µg/mL
- IC80 [24]: 0.0597 µg/mL
- IC80 [25]: > 50 µg/mL
- IC50, pseudovirus neutralization [26]: 0.281 µg/mL
- IC80 [27]: > 50 µg/mL
- IC50, pseudovirus neutralization [28]: 0.0307 µg/mL
- IC80 [29]: 0.0307 µg/mL
- IC50, pseudovirus neutralization [30]: 0.0577 µg/mL
- IC80, pseudovirus neutralization [31]: 0.21 µg/mL
- IC50, pseudovirus neutralization [32]: 0.00633 µg/mL
- IC80, pseudovirus neutralization [33]: > 50 µg/mL
- IC80, pseudovirus neutralization [34]: 0.0723 µg/mL
- IC80 [35]: > 50 µg/mL
- IC80, pseudovirus neutralization [36]: > 50 µg/mL
- IC80 [37]: > 50 µg/mL
- IC50, pseudovirus neutralization [38]: 0.045 µg/mL
- IC50, pseudovirus neutralization [39]: 0.0257 µg/mL
- IC80 [40]: > 50 µg/mL
- IC80 [41]: > 50 µg/mL
- IC50, pseudovirus neutralization [42]: 0.132 µg/mL
- IC80, pseudovirus neutralization [43]: 0.236 µg/mL
- IC50, pseudovirus neutralization [44]: 0.0123 µg/mL
- IC50, pseudovirus neutralization [45]: 0.00933 µg/mL
- IC80 [46]: 0.06 µg/mL
- IC50, pseudovirus neutralization [47]: 0.037 µg/mL
- IC80, pseudovirus neutralization [48]: > 50 µg/mL
- IC50, pseudovirus neutralization [49]: > 50 µg/mL
- IC80 [50]: > 50 µg/mL
- IC50, pseudovirus neutralization [51]: 1.9 µg/mL
- IC50, pseudovirus neutralization [52]: 4.1 µg/mL
- IC50, pseudovirus neutralization [53]: 0.0613 µg/mL
